Results: patent US20200131274A1 (CRESCENDO BIOLOGICS, published 2020)

B1: 1.1-6GS-2.1 (bispecific antibody)
chain: EVQLLESGGGLVQPGGSLRLSCAASGFSFSSYAMSWVRQAPGKGLEWVSSIGENDGTTDYADSVKGRFTISRDNSKSMLYLQMNSLRVEDTAVYYCVKDGVHWGQGTLVTVSSGGGGSGGGGSGGGGSGGGGSGGGGSGGGGSEVQLVESGGGVVQPGRSLRLSCAASGFSFSGYGMHWVRQAPGKGLEWVAYISYDGSNKYYADSVKGRFTISRDNSKNTLYLQMNSLRAEDTAVYYCAKDPAWGLRLGESSSYDFDIWGQGTMVTVSS
B2: 1.1-6GS-2.22 (bispecific antibody)
chain: EVQLLESGGGLVQPGGSLRLSCAASGFSFSSYAMSWVRQAPGKGLEWVSSIGENDGTTDYADSVKGRFTISRDNSKSMLYLQMNSLRVEDTAVYYCVKDGVHWGQGTLVTVSSGGGGSGGGGSGGGGSGGGGSGGGGSGGGGSEVQLVESGGGVVQPGRSLRLSCAASGFSFSGYGTHWVRQAPGKGLEWVAYISYDGSNKYYAAPVKGRFTISRDNSKNTLYLQMNSLRAEDTAVYYCAKDAAWGLRLGESSSYDFDIWGQGTMVTVSS
B3: 1.18-6GS-2.15 (bispecific antibody)
chain: EVQLLESGGGLVQPGGSLRLSCAASGFSFSSYALSWVRQAPGKGLEWVSSIGENNATTDYAASVKGRFTISRDNSKNTLYLQMNSLRVEDTAVYYCVKDGVHWGQGTLVTVSSGGGGSGGGGSGGGGSGGGGSGGGGSGGGGSEVQLVESGGGVVQPGRSLRLSCAASGFSFSGYGLHWVRQAPGKGLEWVAYISYDKSNKYYADKVKGRFTISRDNSKNTLYLQMNSLRAEDTAVYYCAKDPAWGLRLGESSSYDFDIWGQGTMVTVSS
B4: 1.11-6GS-2.15 (bispecific antibody)
chain: EVQLLESGGGLVQPGGSLRLSCAASGFSFSSYALSWVRQAPGKGLEWVSSIGENNDTTDYADNVKGRFTISRDNSKNTLYLQMNSLRVEDTAVYYCVKDGVHWGQGTLVTVSSGGGGSGGGGSGGGGSGGGGSGGGGSGGGGSEVQLVESGGGVVQPGRSLRLSCAASGFSFSGYGLHWVRQAPGKGLEWVAYISYDKSNKYYADKVKGRFTISRDNSKNTLYLQMNSLRAEDTAVYYCAKDPAWGLRLGESSSYDFDIWGQGTMVTVSS
B5: 1.16-6GS-2.15 (bispecific antibody)
chain: EVQLLESGGGLVQPGGSLRLSCAASGFSFSSYALSWVRQAPGKGLEWVSSIGENNHTTDYADTVKGRFTISRDNSKNTLYLQMNSLRVEDTAVYYCVKDGVHWGQGTLVTVSSGGGGSGGGGSGGGGSGGGGSGGGGSGGGGSEVQLVESGGGVVQPGRSLRLSCAASGFSFSGYGLHWVRQAPGKGLEWVAYISYDKSNKYYADKVKGRFTISRDNSKNTLYLQMNSLRAEDTAVYYCAKDPAWGLRLGESSSYDFDIWGQGTMVTVSS
B6: 1.1-6GS-2.15 (bispecific antibody)
chain: EVQLLESGGGLVQPGGSLRLSCAASGFSFSSYAMSWVRQAPGKGLEWVSSIGENDGTTDYADSVKGRFTISRDNSKSMLYLQMNSLRVEDTAVYYCVKDGVHWGQGTLVTVSSGGGGSGGGGSGGGGSGGGGSGGGGSGGGGSEVQLVESGGGVVQPGRSLRLSCAASGFSFSGYGLHWVRQAPGKGLEWVAYISYDKSNKYYADKVKGRFTISRDNSKNTLYLQMNSLRAEDTAVYYCAKDPAWGLRLGESSSYDFDIWGQGTMVTVSS
B7: 1.1-6GS-2.17 (bispecific antibody)
chain: EVQLLESGGGLVQPGGSLRLSCAASGFSFSSYAMSWVRQAPGKGLEWVSSIGENDGTTDYADSVKGRFTISRDNSKSMLYLQMNSLRVEDTAVYYCVKDGVHWGQGTLVTVSSGGGGSGGGGSGGGGSGGGGSGGGGSGGGGSEVQLVESGGGVVQPGRSLRLSCAASGFSFSGYGMHWVRQAPGKGLEWVAYISYDASNKYYADNVKGRFTISRDNSKNTLYLQMNSLRAEDTAVYYCAKDPAWGLRLGESSSYDFDIWGQGTMVTVSS
B8: single VH domain antibody 12.1 (VHH)
VHH: QVQLVESGGGVVQPGRSLRLSCAASGFTFSNFGMHWARQAPGKGLEWVAVISYDGNSKYYADTVKGRFTISRDNSKNTLYLEMNSLRADDTAVYYCAKGLWPPMDVRGQGTTVTVSS
notes: Human single VH domain antibody (Humabody); purified via the C-terminal His-tag, residues not tied
B9: single VH domain antibody 6.1 (VHH)
VHH: QVQLQESGPGLVKPSQTLSLTCTVSGGSISNSGYYWSWVRQHPGKDLEWIGFIYYNGSIHYNPSLKSRVIISVDTSKNQFSLKMNSVTAADTAVYYCARDGDDYGDYLRGQGTLVTVSS
notes: as for B8
B10: single VH domain antibody 14.1 (VHH)
VHH: EVQLVESGGEVKKPGASVKVSCKASGYTFTSYDINWVRQATGQGLEWMGWMNPNSGNTGYAQKFQGRVTMTRNTSISTAYMELSSLRSEDTAVYYCARGNGPGITGTTDYWGQGTLVTVSS
B11: single VH domain antibody 10.1 (VHH)
VHH: QVQLVESGGGLVQPGGSLRLSCAASGFTFSSYGMHWVRQAPGKGLEWVAFMSYDGSNKYYVDSVKGRFTISRDNSKNTLYLQMNSLRAEDTAVYYCAKGDYDFWSGYPDYDMDVWGQGTTVTVSS
notes: as for B8
B12: single VH domain antibody 11.1 (VHH)
VHH: EVQLVESGGGLVKPGGSLRLSCAASGFNLISYGMYWVRQAPGKGLEWVAVISYDGSNKNYADSVKGRFTISRDNSKNTLFLQMNSLRVEDTAVYYCAKGGNALYSSGWPDDGFDIRGQGTMVTVSS
notes: as for B8
B13: single VH domain antibody 4.1 (VHH)
VHH: QVQLVESGGGVVQPGRSLRLSCVASGFPFISYGMHWVRQAPGKGREWVAVISYDGSNRYYADSVKGRFTISRDNSKNTLYLQMNSLRPEDTAVYYCAKERIFGVLTPDDFDIWGQGTTVTVSS
notes: as for B8
B14: single VH domain antibody 13.1 (VHH)
VHH: EVQLVESGGGSVQPGGSLRLSCAASGFTFSDYWMTWVRQVPGKGLEWVANIKQDGSEKYYVDSVKGRFTISRDNAKNSLYLQMNSLRAEDTAVYYCARDRGGAVALYHNGMDMGGQGTTVTVSS
notes: as for B8
B15: HiPEG A-2-A-His6 val-cit-PAB-MMAE (VHH)
chain: EVQLVESGGGVVQPGRSLRLSCAASGFSFSGYGMHWVRQAPGKGLEWVAYISYDGSNKYYADSVKGRFTISRDNSKNTLYLQMNSLRAEDTAVYYCAKDPAWGLRLGESSSYDFDIWGQGTMVTVSSGGGGSGGGGSGGGGSGGGGSGGGGSGGGGSEVQLVESGGGVVQPGRSLRLSCAASGFSFSGYGMHWVRQAPGKGLEWVAYISYDGSNKYYADSVKGRFTISRDNSKNTLYLQMNSLRAEDTAVYYCAKDPAWGLRLGESSSYDFDIWGQGTMVTVSSAAAHHHHHH
modifications: HiPEG val-cit-PAB-MMAE attached via the C-terminal His6-tag, DAR 1
B16: HiPEG B-2-B-His6 val-cit-PAB-MMAE (VHH)
chain: EVQLLESGGGLVQPGGSLRLSCAASGFSFSSYAMSWVRQAPGKGLEWVSSIGENDGTTDYADSVKGRFTISRDNSKSMLYLQMNSLRVEDTAVYYCVKDGVHWGQGTLVTVSSGGGGSGGGGSGGGGSGGGGSGGGGSGGGGSEVQLLESGGGLVQPGGSLRLSCAASGFSFSSYAMSWVRQAPGKGLEWVSSIGENDGTTDYADSVKGRFTISRDNSKSMLYLQMNSLRVEDTAVYYCVKDGVHWGQGTLVTVSS
modifications: HiPEG val-cit-PAB-MMAE attached via the C-terminal His6-tag, DAR 0.7
B17: HiPEG A-2-B-His6 val-cit-PAB-MMAE (bispecific antibody)
chain: EVQLVESGGGVVQPGRSLRLSCAASGFSFSGYGMHWVRQAPGKGLEWVAYISYDGSNKYYADSVKGRFTISRDNSKNTLYLQMNSLRAEDTAVYYCAKDPAWGLRLGESSSYDFDIWGQGTMVTVSSGGGGSGGGGSGGGGSGGGGSGGGGSGGGGSEVQLLESGGGLVQPGGSLRLSCAASGFSFSSYAMSWVRQAPGKGLEWVSSIGENDGTTDYADSVKGRFTISRDNSKSMLYLQMNSLRVEDTAVYYCVKDGVHWGQGTLVTVSSAAAHHHHHH
modifications: HiPEG val-cit-PAB-MMAE attached via the C-terminal His6-tag, DAR 1
B18: HiPEG C-His6 val-cit-PAB-MMAE (VHH)
VHH: EVQLVESGGGVVQPGRSLRLSCAASGFPLISYGMHWVRQAPGKGLEWVAFMTYDGSNRYYADSVKGRFTISRDNSKNTLYLQMNSLRDEDTALYYCARDRIVGGRVPDAFDIWGQGTMVTVSS
modifications: HiPEG val-cit-PAB-MMAE attached via the C-terminal His6-tag, DAR 1
B19: HiPEG C-2-C-His6 val-cit-PAB-MMAE (VHH)
chain: EVQLVESGGGVVQPGRSLRLSCAASGFPLISYGMHWVRQAPGKGLEWVAFMTYDGSNRYYADSVKGRFTISRDNSKNTLYLQMNSLRDEDTALYYCARDRIVGGRVPDAFDIWGQGTMVTVSSGGGGSGGGGSGGGGSGGGGSGGGGSGGGGSEVQLVESGGGVVQPGRSLRLSCAASGFPLISYGMHWVRQAPGKGLEWVAFMTYDGSNRYYADSVKGRFTISRDNSKNTLYLQMNSLRDEDTALYYCARDRIVGGRVPDAFDIWGQGTMVTVSS
modifications: HiPEG val-cit-PAB-MMAE attached via the C-terminal His6-tag, DAR 1
B20: HiPEG A-1-B-His6 val-cit-PAB-MMAE (bispecific antibody)
chain: EVQLVESGGGVVQPGRSLRLSCAASGFSFSGYGMHWVRQAPGKGLEWVAYISYDGSNKYYADSVKGRFTISRDNSKNTLYLQMNSLRAEDTAVYYCAKDPAWGLRLGESSSYDFDIWGQGTMVTVSSGGGGSGGGGSEVQLLESGGGLVQPGGSLRLSCAASGFSFSSYAMSWVRQAPGKGLEWVSSIGENDGTTDYADSVKGRFTISRDNSKSMLYLQMNSLRVEDTAVYYCVKDGVHWGQGTLVTVSS
modifications: HiPEG val-cit-PAB-MMAE attached via the C-terminal His6-tag, DAR 1

Biological target: cynomolgus PSMA, full-length, on CHO cells (cynomolgus, UniProt A0A2K5VNZ0 1-750)
Test: cell-based or functional assay

Point of comparison: B7, “His-ZAP cell killing, cyno PSMA Average EC50” value 11 pM. Against it:
- B1 — within 1.5-fold, 12 pM
- B2 — within 1.5-fold, 7.8 pM
- B3 — within 1.5-fold, 10 pM
- B4 — within 1.5-fold, 9 pM
- B5 — the same, 11 pM
- B6 — within 1.5-fold, 8.6 pM

Biological target: T1, recombinant human PSMA (R&D, cat. no. 4234-ZN) (human, UniProt Q04609 44-750)
T1 construct: Bought protein; also called rhPSMA; Recombinant PMSA
Test: Octet RED384 BLI, PSMA on sensor, VH purified from periplasmic extracts

T1 sequence (Q04609 44-750 limits assumed): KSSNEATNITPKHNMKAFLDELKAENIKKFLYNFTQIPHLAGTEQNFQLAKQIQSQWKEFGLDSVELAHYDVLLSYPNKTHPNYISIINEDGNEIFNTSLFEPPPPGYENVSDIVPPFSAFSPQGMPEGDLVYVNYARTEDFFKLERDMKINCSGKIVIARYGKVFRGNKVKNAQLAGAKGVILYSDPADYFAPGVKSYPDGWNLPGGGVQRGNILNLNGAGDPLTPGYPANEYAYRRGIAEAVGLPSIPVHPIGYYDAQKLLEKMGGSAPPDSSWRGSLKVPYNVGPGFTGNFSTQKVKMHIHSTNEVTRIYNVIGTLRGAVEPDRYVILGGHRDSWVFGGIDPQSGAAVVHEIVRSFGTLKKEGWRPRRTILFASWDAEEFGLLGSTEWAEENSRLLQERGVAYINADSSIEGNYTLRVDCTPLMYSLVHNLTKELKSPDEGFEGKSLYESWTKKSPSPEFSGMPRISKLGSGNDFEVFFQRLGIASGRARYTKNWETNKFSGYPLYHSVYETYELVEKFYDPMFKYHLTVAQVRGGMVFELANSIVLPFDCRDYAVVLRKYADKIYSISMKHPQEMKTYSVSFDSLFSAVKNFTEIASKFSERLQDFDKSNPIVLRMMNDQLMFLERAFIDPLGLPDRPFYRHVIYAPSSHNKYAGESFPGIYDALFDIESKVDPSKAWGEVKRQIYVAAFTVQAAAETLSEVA

Point of comparison: B11, Kd 95000 pM. Against it:
- B8 — 24-fold lower, 3900 pM
- B9 — 5.9-fold lower, 16000 pM
- B10 — 5.6-fold lower, 17000 pM
- B12 — 3.7-fold lower, 26000 pM
- B13 — 2.1-fold lower, 45000 pM
- B14 — 23-fold lower, 4200 pM

Point of comparison: B11, koff 0.00185 s⁻¹. Against it:
- B8 — within 1.5-fold, 0.00137 s⁻¹
- B9 — 2-fold higher, 0.00365 s⁻¹
- B10 — 1.7-fold lower, 0.0011 s⁻¹
- B12 — within 1.5-fold, 0.00149 s⁻¹
- B13 — 7.6-fold higher, 0.014 s⁻¹
- B14 — 3.1-fold lower, 0.0006 s⁻¹

Biological target: T2, human prostate specific membrane antigen (PSMA), full-length, on cells (human, UniProt Q04609 1-750)
Test: cell-based or functional assay

T2 sequence (Q04609 whole entry): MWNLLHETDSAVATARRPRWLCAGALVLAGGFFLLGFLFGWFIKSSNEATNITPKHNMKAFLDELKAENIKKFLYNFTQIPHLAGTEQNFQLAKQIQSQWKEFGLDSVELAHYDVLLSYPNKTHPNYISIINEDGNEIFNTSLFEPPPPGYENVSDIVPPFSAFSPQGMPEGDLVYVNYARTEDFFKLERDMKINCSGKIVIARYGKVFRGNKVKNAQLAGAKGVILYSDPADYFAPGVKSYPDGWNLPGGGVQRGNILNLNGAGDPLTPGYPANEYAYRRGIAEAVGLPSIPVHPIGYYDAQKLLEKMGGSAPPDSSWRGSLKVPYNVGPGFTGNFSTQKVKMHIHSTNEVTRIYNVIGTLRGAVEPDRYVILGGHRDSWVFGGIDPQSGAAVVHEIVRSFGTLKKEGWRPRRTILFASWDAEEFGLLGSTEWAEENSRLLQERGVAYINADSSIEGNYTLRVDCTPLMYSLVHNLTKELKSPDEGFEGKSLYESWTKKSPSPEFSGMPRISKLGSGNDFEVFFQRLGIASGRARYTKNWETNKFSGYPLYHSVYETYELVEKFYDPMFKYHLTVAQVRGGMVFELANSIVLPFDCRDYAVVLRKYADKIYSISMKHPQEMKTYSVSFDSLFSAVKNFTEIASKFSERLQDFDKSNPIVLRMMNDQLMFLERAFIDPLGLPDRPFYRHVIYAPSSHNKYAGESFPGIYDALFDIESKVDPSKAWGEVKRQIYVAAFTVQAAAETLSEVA

Point of comparison: B16, “IC50 (nM), cytotoxicity on DU145 PSMA cells, 72 h” value 21 nM. Against it:
- B15 — 110-fold lower, 0.19 nM
- B17 — 72-fold lower, 0.29 nM

Point of comparison: B17, “IC50 (toxin) nM, DU145 PSMA cells, 72 h” value 0.29 nM. Against it:
- B15 — 1.5-fold lower, 0.19 nM
- B16 — 51-fold higher, 14.7 nM

Biological target: T2, human prostate specific membrane …
Test: cell-based or functional assay
Remark: another data set of the same source

Point of comparison: B20, “IC50 Toxin (nM), DU145 PSMA cells, 48 h” value 0.67 nM. Against it:
- B18 — 7.8-fold higher, 5.21 nM
- B15 — 2.1-fold lower, 0.32 nM
- B16 — 19-fold higher, 12.6 nM
- B17 — 1.8-fold lower, 0.37 nM
- B19 — 6.8-fold higher, 4.54 nM

Point of comparison: B20, “Mean IC50, cytotoxicity on DU145 PSMA cells, 48 h” value 670 pM. Against it:
- B18 — 7.8-fold higher, 5200 pM
- B15 — 2.1-fold lower, 320 pM
- B16 — 27-fold higher, 18000 pM
- B17 — 1.8-fold lower, 370 pM
- B19 — 6.7-fold higher, 4500 pM

Point of comparison: B18, “Mean Max % Cell kill, DU145 PSMA cells, 48 h” value 59%. Against it:
- B15 — lower, 57%
- B17 — higher, 78%
- B19 — higher, 69%
- B20 — higher, 75%
